Tests used:
[1] = target: murine CXCR4 on mouse ES cells and mouse embryo fibroblasts (mouse) (UniProt P70658); test: cell-based or functional assay
[2] = target: murine CXCR6 on differentiated WT ES cells (mouse) (UniProt Q9EQ16); test: cell-based or functional assay
Sequence of murine CXCR6 on differentiated WT ES cells (mouse) (Q9EQ16 whole entry): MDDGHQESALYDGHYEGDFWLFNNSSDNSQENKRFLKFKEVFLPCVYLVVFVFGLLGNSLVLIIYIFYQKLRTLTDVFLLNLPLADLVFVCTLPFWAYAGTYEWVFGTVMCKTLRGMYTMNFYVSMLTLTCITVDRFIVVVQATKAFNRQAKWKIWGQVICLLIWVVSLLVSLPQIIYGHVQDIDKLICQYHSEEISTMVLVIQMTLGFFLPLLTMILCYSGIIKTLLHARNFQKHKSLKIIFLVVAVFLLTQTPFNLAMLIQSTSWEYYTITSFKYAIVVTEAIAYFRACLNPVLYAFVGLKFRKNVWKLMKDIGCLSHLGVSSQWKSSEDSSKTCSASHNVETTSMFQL

Sequence of murine CXCR4 on mouse ES cells and mouse embryo fibroblasts (mouse) (P70658 whole entry): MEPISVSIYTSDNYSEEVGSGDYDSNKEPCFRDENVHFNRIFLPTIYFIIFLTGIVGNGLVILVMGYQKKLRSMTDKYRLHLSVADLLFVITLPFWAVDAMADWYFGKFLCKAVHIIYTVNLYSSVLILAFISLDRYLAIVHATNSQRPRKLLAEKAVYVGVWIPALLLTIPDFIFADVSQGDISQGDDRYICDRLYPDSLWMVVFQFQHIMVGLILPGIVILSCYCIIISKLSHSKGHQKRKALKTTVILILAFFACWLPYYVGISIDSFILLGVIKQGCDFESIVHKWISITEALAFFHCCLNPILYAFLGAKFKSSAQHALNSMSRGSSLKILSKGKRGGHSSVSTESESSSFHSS

| CXCL12 chemotaxis of differentiating WT-ES cells [1] [fold] | chemotaxis of differentiated WT ES cells towards CXCL16 [2] [fold] | Substance |
| --- | --- | --- |
| > 2 | – | chemokine CXCL12 (R&D systems) (ligand) |
| – | 2 | chemokine CXCL16 (R&D) (ligand) |
